This note sets out measurements from publication PMC4663108 (Journal of molecular biology, 2015).

The target of the assay is DnaK D45C-biotin (E. coli, UniProt P0A6Y8 1-638, D45C, biotin (labeled with a 20-fold excess of Maleimide-PEG11-Biotin)). The assay can be described thus: pull-down.

B1: CbpA (natural protein, E. coli, UniProt P36659 1-306, looked up)
chain: MELKDYYAIMGVKPTDDLKTIKTAYRRLARKYHPDVSKEPDAEARFKEVAEAWEVLSDEQRRAEYDQMWQHRNDPQFNRQFHHGDGQSFNAEDFDDIFSSIFGQHARQSRQRPATRGHDIEIEVAVFLEETLTEHKRTISYNLPVYNAFGMIEQEIPKTLNVKIPAGVGNGQRIRLKGQGTPGENGGPNGDLWLVIHIAPHPLFDIVGQDLEIVVPVSPWEAALGAKVTVPTLKESILLTIPPGSQAGQRLRVKGKGLVSKKQTGDLYAVLKIVMPPKPDENTAALWQQLADAQSSFDPRKDWGKA
B1: the binding result is “binds”.
